Laboratory results from patent US9458483B2, “Compositions comprising a polypeptide having cellulolytic enhancing activity and a bicyclic compound and uses thereof” (Novozymes, Inc., priority 2010, dated 2016).
Read-outs that look alike come from different tables or passages of the source.

What was measured:
[1] = system: Trichoderma reesei cellulase composition; assay type: biochemical
Procedure: (§1) Control saccharification reactions containing equivalent methanol-containing buffer concentrations, 2% and 10% (v/v) methanol, or no methanol, were performed on each 96-well plate. […] All experiments were performed in triplicate, unless otherwise indicated.
(§2) The filtrates were analyzed for sugar content as described below. […] Data were processed using MICROSOFT EXCEL® software (Microsoft, Richland, Wash., USA), or […]® software (Synergy Software, Reading, Pa., USA).
Similarly, the effect of each bicyclic compound tested in the absence of GH61 polypeptide was quantified by calculating the ratio of percent conversion for the T. reesei cellulase composition without supplemented GH61 polypeptide having cellulolytic enhancing activity in the presence of each compound to the percent conversion in the absence of each compound:
In general, the bicyclic compound effect(no GH61) was approximately 1, though the methanol solvent was inhibitory to cellulolysis (Example 3).

[2] = system: Trichoderma reesei cellulase composition; assay type: biochemical; settings: for GH61 effect: 2% methanol
Procedure: as §1, §2
[formula] where 1.111 represents the mass conversion factor accounting for the hydration of glucose produced from the cellulose polymer. The fractional hydrolysis is defined herein as the conversion expressed as a fraction rather than as a percent (i.e., % conversion/100).
[formula] […] Thus for saccharification reactions where only the presence of a bicyclic compound differs, a difference in GH61 effect can be attributed to the effect of the bicyclic compound on the cellulolytic enhancing effect of the GH61 polypeptide.

Molecule: CO [methanol]
- effect on saccharification by the T. reesei cellulase composition ([1]; 2% and 10% (v/v) methanol): inhibited saccharification
- bicyclic compound effect(no GH61) ([1]; 2% methanol, 3 days): 0.93
- bicyclic compound effect(no GH61) ([1]; 2% methanol, 7 days): 0.90
- bicyclic compound effect(no GH61) ([1]; 10% methanol, 3 days): 0.43
- bicyclic compound effect(no GH61) ([1]; 10% methanol, 7 days): 0.35

B1: T. aurantiacus GH61A polypeptide: GH61A polypeptide having cellulolytic enhancing activity (SEQ ID NO: 14), recombinantly prepared in Aspergillus oryzae JaL250 (protein, listed as Thermoascus aurantiacus)
chain: MSFSKIIATAGVLASASLVAGHGFVQNIVIDGKYYGGYLVNQYPYMSNPPEVIAWSTTATDLGFVDGTGYQTPDIICHRGAKPGALTAPVSPGGTVELQWTPWPDSHHGPVINYLAPCNGDCSTVDKTQLEFFKIAESGLINDDNPPGIWASDNLIAANNSWTVTIPTTIAPGNYVLRHEIIALHSAQNQDGAQNYPQCINLQVTGGGSDNPAGTLGTALYHDTDPGILINIYQKLSSYIIPGPPLYTG
- GH61 effect ([2]; 3 days of hydrolysis): 0.98±0.078
- GH61 effect ([2]; 7 days of hydrolysis): 1.01±0.06
- GH61 effect (Equation 4) ([2]; 10% methanol, 3 days): 1.00±0.068
- percent conversion in the presence of 50% (w/w) T. aurantiacus GH61A polypeptide ([2]; 10% methanol, 3 days of hydrolysis): 11.8±0.379%
- percent conversion in the presence of 50% (w/w) T. aurantiacus GH61A polypeptide ([2]; 10% methanol, 7 days of hydrolysis): 15.1±0.388%
- percent conversion in the presence of 50% (w/w) T. aurantiacus GH61A polypeptide ([2]; 3 days of hydrolysis, no bicyclic compound, no methanol, averaged over all plates): 26.2±1.17%
- GH61 effect (Equation 4) ([2]; 3 days of saccharification, no bicyclic compound, no methanol): 0.98±0.064
- percent conversion in the presence of 50% (w/w) T. aurantiacus GH61A polypeptide ([2]; 7 days of hydrolysis, no bicyclic compound, no methanol, averaged over all plates): 41.4±1.67%
- GH61 effect (Equation 4) ([2]; 7 days of saccharification, no bicyclic compound, no methanol): 0.99±0.051
- GH61 effect on AVICEL ([2]; in the absence of bicyclic compounds): 1
